T1: J protein (bacteriophage, UniProt P0DXX7)
T1 chain: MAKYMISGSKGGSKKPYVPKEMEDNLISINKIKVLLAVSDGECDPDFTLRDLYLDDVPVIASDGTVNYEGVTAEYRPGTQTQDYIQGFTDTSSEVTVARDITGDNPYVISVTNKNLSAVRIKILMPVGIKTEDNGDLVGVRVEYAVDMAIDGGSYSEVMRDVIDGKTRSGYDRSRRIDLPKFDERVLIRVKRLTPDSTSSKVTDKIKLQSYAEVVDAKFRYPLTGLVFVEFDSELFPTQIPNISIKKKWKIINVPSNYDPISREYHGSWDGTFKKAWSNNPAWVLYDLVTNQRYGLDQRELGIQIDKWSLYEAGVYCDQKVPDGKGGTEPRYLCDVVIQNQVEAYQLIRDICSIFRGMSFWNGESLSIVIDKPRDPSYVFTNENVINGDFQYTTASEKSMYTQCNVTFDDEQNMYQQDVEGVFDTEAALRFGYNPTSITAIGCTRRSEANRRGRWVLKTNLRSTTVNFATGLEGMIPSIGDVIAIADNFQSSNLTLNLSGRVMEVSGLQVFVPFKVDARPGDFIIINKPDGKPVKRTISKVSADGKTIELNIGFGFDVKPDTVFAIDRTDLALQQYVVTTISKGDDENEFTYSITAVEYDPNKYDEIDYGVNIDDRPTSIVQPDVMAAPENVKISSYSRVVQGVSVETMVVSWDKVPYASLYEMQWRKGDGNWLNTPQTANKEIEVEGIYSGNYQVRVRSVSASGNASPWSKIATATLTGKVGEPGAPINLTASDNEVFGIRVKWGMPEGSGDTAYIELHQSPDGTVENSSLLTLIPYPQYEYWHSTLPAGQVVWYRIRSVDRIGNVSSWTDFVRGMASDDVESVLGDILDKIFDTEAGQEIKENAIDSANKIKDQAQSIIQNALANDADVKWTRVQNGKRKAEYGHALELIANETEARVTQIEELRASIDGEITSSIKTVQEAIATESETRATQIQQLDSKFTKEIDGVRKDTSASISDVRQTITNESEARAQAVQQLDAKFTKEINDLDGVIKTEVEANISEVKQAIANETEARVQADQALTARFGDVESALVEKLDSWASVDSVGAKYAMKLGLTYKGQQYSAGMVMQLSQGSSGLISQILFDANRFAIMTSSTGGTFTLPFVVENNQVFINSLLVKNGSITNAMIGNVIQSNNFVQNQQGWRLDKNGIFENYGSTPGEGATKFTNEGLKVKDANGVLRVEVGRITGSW


Key:
[1] = biological target: Gifsy-1 central tail tip J protein with Flag tag (phage Gifsy-1 of Salmonella Typhimurium); assay: BLI
J protein = biological target: T1, J protein; assay: BLI

Binder	koff [1] [s⁻¹]	Kd (J protein) [nM]
OmpX fused to TF and His tag (receptor) MKKIACLSALAAVLAFSAGTAVAATSTVTGGYAQSDAQGVANKMSGFNLKYRYEQDDNPLGVIGSFTYTEKDRTNGAGDYNKGQYYGITAGPAYRLNDWASIYGVVGVGYGKFQTTDYPTYKHDTSDYGFSYGAGLQFNPMENVALDFSYEQSRIRSVDVGTWIAGVGYRF	0.000275	
OmpX (protein) ATSTVTGGYAQSDAQGQMNKMGGFNLKYRYEEDNSPLGVIGSFTYTEKSRTASSGDYNKNQYYGITAGPAYRINDWASIYGVVGVGYGKFQTTEYPTYKHDTSDYGFSYGAGLQFNPMENVALDFSYEQSRIRSVDVGTWIAGVGYRF		70
BtuB (protein) QDTSPDTLVVTANRFQQPRSAVLAPVTIVTRQDIERWQSTSVNDVLRRLPGVDIAQSGGAGQNSSIFIRGTNSSHVLVLIDGVRLNLAGVSGSADLSQFPVSLVQRIEYIRGPRSAIYGSDAIGGVVNIITTRDNPGTELTAGWGSNSYQNYDISTQQQLGENTRATLIGDYEYTKGFDVVAKGGTGMQAQPDRDGFLSKTLYGALEHTFSDRWSGFVRGYGYDNRTDYDAYYSPGSPLIDTRKLYSQSWDAGLRFNGERIQSQLVSSYSHSKDYNYDPHYGRYDTSATLDEMKQYNVQWTNSVVVGHGNVGAGVDWQKQTTTPGTGYVPEGYDQRNTGVYLTGLQQLGDFTLEAAARSDDNSQFGRHGTWQTSAGWEFIEGYRFIASYGTSYKAPNLGQLYGYYGNPNLNPEKSKQWEGAFEGLTAGVSWRISGYRNDINDMIDYDDHLQKYYNEGKARIKGIEATANFDTGPLTHTVSYDYVDARNAITDTPLPRRSKQMAKYQLDWDVYDFDWGVTYQYLGSRYDSDYSAYPYRTVKMGGVSLWDLTVAYPVTSHLTVRGKIANLFDKDYETVYGYQTAGREYTLSGSYTF		0.00597
